Experiment: label from the status in PepcDB records

| Sequence | protein production |
| --- | --- |
| MAAFTGTTDKCKACDKTVYVMDLMTLEGMPYHKSCFRCSHCNGTLVICNYSSMDGVLYCKTHFEQLFKESGNFSKNFQTAGKTEKSNDAAPNRLSSFFSGTQDKCAACKKTVYPLEKMTMEGESYHKTCFRCAHSGCPLTHSSYAALDGVLYCKVHFSQLFLEKGNYNHVLQAAANHRRSTAEEDKTEPKEDEANPTEEETSDAAAEEHES | failed |
| MAAGFSSKTTRDSPHLSEIRVVLLGNNDCDRRRVVRSVLGDLTGESVGQCTVYDGEESRRRIRVVDAPGWNSNTPQSKLRESIERSAMLCAPGPHALLLVLPVRRNEDMSAGDIKSGMKLVEMLSERAWRHTIVVFACDEGTGGFSCSQKAKIVLEKCKGRGFYLQRQGGIAQLFTQIEDLVRDNGEDDVFLPQAYHELFRRKTEGLLHRRGNLRKKPVHLSKSEAGALGVEPFSVIVIAVLAAVLVSLSFGAEYGVFGGCAGLLLGSILPF | failed |
| MAAGKRDYYEVLGISKNASSQDIKRAFRKLAMQYHPDRHKAENETTQKQNEEKFKEVNEAYEVLSDEEKRKLYDQFGHEGLNASGFHEAGFNPFDIFNSVFGEGFSFGMDGDSPFDFIFNRSKKRQQQIVVPYNLDIALVIEINFFEMTNGCNKTIKYERKVSCHSCNGFGAEGGESGLDLCKDCNGNGFVIKNQRSIFGTIQSQVLCSTCNGQGKQIKVKCKTCRSNKYTVTNQIKEINIPAGMYSGEALVDESGGNEFKGHYGKLIIQVNVLASKIFKRSDNNVIANVLVDPMVAIVGGVIELPTLEGIKEFNIRPGTKSGEQIVIPNGGIKFSKSFKRKAGDLIIIISYARPCEYTNLELKKLREFIKPNQEVKQYLNTLKNEYKT | failed |
| MAAGKTHDKITVIMTPFIASFFLFINMIFLEDLGSSLAFTILGVSIYMFGGYMFSGDLDIKSREFRRWGYLKFIWIPYQKLFEHRSVFTHGFILGPIIRILYVSIIPITISSLLYSFSIINISTPEMLKLVFNFILKNKILFGNMALALFLGSGLHTITDMIYSYFKRKFSYKKRKSSKKYSRSKRPSRRAA | failed |
| MAAKKDYYAILGVPRNATQEEIKRAYKRLARQYHPDVNKSPEAEEKFKEINEAYAVLSDPEKRRIYDTYGTTEAPPPPPPGGYDFSGFDVEDFSEFFQELFGPGLFGGFGRRSRKGRDLRAELPLTLEEAFHGGERVVEVAGRRVSVRIPPGVREGSVIRVPGMGGQGNPPGDLLLVVRLLPHPVFRLEGQDLYATLDVPAPIAVVGGKVRAMTLEGPVEVTIPPRTQAGRKLRLRGKGFPGPAGRGDLYLEVRITIPERLTPEEEALWKKLAEAYYARA | failed |
| MAALSEKEAEAYLDARPRYPIDWFKKIAARTQDHKFAWDVGTGNGQAAIGLVEHYENVVATDINEAQLQRAIKHSRISYHHTPTTISEDEMVDLLGGENSVDLIVAAQAVHFFDLNVFYNVAKRVLRKEGGLIAVWVYNDIIISHEIDPIMKRLVDSTLPFRTPIMNLAFDGYKTLTFPFETIGMGSEGKPITLDIPHKLSLKGFIGFLRSWQPAMKAKEKGVELINEDLITKFEEAWGDETQVKDVFYKAHMIVGKIPEEKFESDQVLSNKGRLLLETEVGRNQKRPQPSDEGDRQSKKQNTSEDDACKDKPSSVFSTHYRF | failed |
| MAALSNLKQCPPFSTLPDLALRHNHIPELERYPQINLNSELLANPAGQRYYGGQSFVSVNEGVLKRIARSFFNGGFWKTLEEARSPETREQAPLIAQAGDLIAQFLGLATGLRILPHTQQLSAERIAQFVETRDWLNSDVRYLAWNQHFFCLAVAGVDDVVRIYTKSSSATTATVLKSPSQTQITCMAWRPLCASEIVIGCRQGLCFWEVDSTLHLGRTNAPSEIFKYPNNLPITSMQWNKDGTQLATASIGDRSIIIWQPDTGMMQPLKRLGPPGSLLKWSPDNDWLFAATVDRVFRVWNCHQQWTTERWVCGPGGYVQTACWSPCGRFLLFVSSAEPILYRLQFVQQSLLSSSADEKEILPIADLNACSIDANRTLVGGPAQQLAWDPHGNYLVVTFKATNCIAVFRTFIQKFDLQISAAYYLSGETAAEHPSFICFQPLYEDNDRSVLTIAWSSGRIQYYAFD | failed |
| MAAPLIPVLTAPTAAGKTALALRLAREYGLEIVAADAFTVYRGLDLGTAKPTPQERASVPHHLLDVVDVTQSYDVAQYAAQAEAAIVDILARGRLPLVVGGTGFYLSALSRGLPLTPPSDPKMRAALEAELQERGLDALLAEIEQANPAEAARMERNPRRVVRALEVYRAAGRFPGEFGYSPPAFQYQVFAFSPPAAEMEQRVQERTAAMLRAGWPQEAQWLAGQVPPEQEPRPTVWQALGYAEALAVAQGRLSLAGAEQAIALATRQYGKRQLTWMRRQLGAEVQSPDAAEAHLRAFLERSGAPSLEHHHHHH | failed |
| MAAPSGVPPMRVLEELGINLSPTGEVTETEAVAAEGAYYLEQVTITETSEDECEYEEIPDDNFSIPEGEEDLAKAIHMVDEQATDTHILEQQTILPSRHVMQEAIEDFLCNFLIKMGMTRTLDCFQAEWYELIQKTGSDLRTLGNVPDVYSQVMLLETENKNLKKDLKHFKQAAEKAKEDLLKTQKERDFHRMHHKRILQEKNKLIADLKGLKLHYASYEPTIRVLHEKHHALLKEKMLTSLERDRAVGKISGLQATLKNIDIGHIQVPVIKGSYETASILRELGDKAGHTYEKENSSEGPTQKNLREAREENGYKTKMKSERKDSEFPVDMQPDPNLTACTESLPTAKFDYRLNNIFRLHELPVSCICTHSVRDTMILCSEVRMWAGVGMDSGSISITPSGISRWISGCCDHPNRSWLLTSNGNRTLSLWELPEGKCTLTLQSLCQHHHFIWSCSWHICSRCAAQSSYRSTPKVWFLSVERCRYTLYGHTDSVNSIEFFPFSNTLLTASADKTLSVWDARTSHCQQSLYGHIRNIHIVKFTTPRLRGHILASCDSRGVIKLWDFRKLIPIVSIDVGPSPGNEVNFDPSGRVLAQASANGIIHLLDLKSGQIHKLVGHESEVHTVIFSHRAENLYSGGSDGTIRLWL | failed |
| MAASFAFLRDVRPYKTSWRVQVKVLHSWCQYTNMTGETLKLVLVNSQGVKIHASVKKDLVSKYVNNLPLNEWTFIETFALNHASGQFRPTGHLYKMSFVTGTQVIRCDS | not failed |
| MAASPKDPLDWAALLQLQMDEAFDFILRSEAGSVAECDLSPPVDIFETPDAFSVEFDLPGTDPADLSLKLCCNMLILEGVKRDDSREGGSYLCLERRFGRFCRTVEIPPTVDVSAVRADYRRGVLTVTFPRLSDRRKVMRDIPIIQGDN | failed |
| MADDDHIEAVLARLSRPQKLALVRGATDPEGTATGYLSGVEEAGIPPFRLVDGPLGIRAEGQRATAFPASIATAATFDPDLARQQGAAMGREAAALGQDALLAPGVNIIRVPHCGRNFEYLSEDPVHAGAVGAGLIDGIQSADVVATVKHFVANNQETHRTTVSTEVDERTLRELYLPPFRSAVDAGVGSVMTAYNRVNGTHMSDHGRLVGDVLKSEWGFNGYVVSDWYGLESTVGAANAGMDVEMPGVAAPGAAEAANSDTADDAEEFEWPDGIPDATRAGLFGDPLVEAIDSGEVPAERLDDMVRRVLGQMDRFGRLDGSRTAAEDGASDDQAGELDSQRHRDIAADVAARGTVLLDNDGVLPLADGADVAVIGPNIDEPKLGGGGSSETTPVHSVTPVAGIESRAEGAVTTAFGVPQIESVSLFDLLPFVGEDDDTDGTAADIAQQDPSLDDAVDAAAAADVAVVFVRDATTEARDRDSLALPGQQDDLVSAVAATNENTVVVVRSGGPVELPWREDVAAVLEQWYPGQADGDAAAAVLYGDRDPSGRLPVTFAPEGEYPTAGAERRYPGVDDEVHYDEDVFIGYRHFDDEDADPTYPFGHGHSYATFEYGDAEITGEWTVAVPVKNAADRPGREVIQAYVRPPSVDGVDRPRRELAGFEAVQLDADEQKTVALTLDDLAFSRYDPNSGWTVDTGTYTVEIGRSSRDIRTTVPVDR | failed |
| MADIRVTHEAQVTVISFPAVFQRLRETEVEQIASTFLAAMQGAQPRKVLIDLEGVEFFGSSFIELLVRGWKRIKEDQQGVFALCSVSPYCVEVLQVTHIDEVWPRYSTKQEALLAMAS | not failed |
| MADLFDGMKRRMDALIAERFGMKVNINGTDCIVVESDFLAELGPVEGNGKNVVVFSGNVIPRRGDRVVLRGSEFTVTRIRRFNGKPQLTLEENNGGKGA | not failed |
| MADRPHPYDRAPGGSSGSHDRTGVFRRNPDGGLPDRIDSLYRPEPAARSASDAAATRRLSRTSGTPPRRPTPRSRGRDSGGWERRERERRARRRKKAAVLVLVLLLLLPTVGYLWANSRLNRVAALVPYEGRPDDQPGTTYLIVGSDSREGLSDEDMEALRTGKAEGKRTDTIMVLYVPTEGRPAIISVPRDSYVEIPGIGANKINAAYAEALGGGPATLVRTFEQASGVRIDHYVEIGFAGFVDIVDAVGGVELCPEEAMEDPKAGLDIEAGCQVMDGPTALGYVRTRATPRADLDRIQRQREFFSALIQQATAPSTLFNPFRSIPLVLSGTSTFSVDEGDSLMDLAWLALAMRDSPATTAVPVGSTPTLDVGSVVLWDEARAEEMFAAMREGRPIPESAMQD | failed |
| MADSSNKKKAASHESKKSNMEIMFSGSDSLTKRERRKKKQLIARSVGFALIGIEVIALIIFLAALFKLNMIPAKYMAMLIGILLLITVYNVLSQFTKAHWVGKVLAVLLAVVMFVGSSYIGKANSVISNIAGVTTKTDTFSLVVLATDPATGVEATKNYTFGYNKINNKDMAESLIQEVNTTLGTNVKTRTYDNWTNIINALYNNEVKVIVFNESNRAMLEEQFTDFEEKTKVIYTKTYTTQIKENVVNKNTATESFTIYVSGNDDYGAISANGRSDVNIVATFNPKTRQVLMVSTPRDYWVPVDTLSTDSNGKAVTGYEKLTHAGNYGVDSSISTLESLYGVDVDYYVKVNFTGAVGVIDALGGITINSDVKFTNGEDAAPVAYNFVVGPNECDGEKALAFCRERQAFSDGDNQRGRNQMAAIEGMIDKATSTAILTQYNKVLDAVSGLIATNMPDSAISNLVKAQINDPTGWNIMSYSVSGTGATKTGQLFGIVGMSVIEPDYSTVNTAIELMSKVRNGEVFDIDQFLEDKALESGTTQAR | failed |
| MADSTAMADAIWFGGPIVTIDAHTPSARAVAVRDGRIMAVGREHAVLRYRGPDTRMHDLRGATLLPGFVDAHSHVSTVGLEHHHHHH | failed |
| MADTVEEPQLQNGAAPAESETEQNPIPEPQLQTEPKLTGEIPEIEADLTPEEVQSEVTDAKPEEVQSEVKPEEVKTVVTDAKPEEAQSEVKPEEVQSVVTDTKPDLTDVDLSPGGSEEIPIRSTEVEQESTTSVLKKDDDGNKTFTMRELLSELKSEEGDGTPHSSASPFSRESASQPAENNPAMDLINRIQVNDEEGRSRQRVLAFAARKYASAIERNPDDHDALYNWALILQESADNVSPDSVSPSKDDLLEEACKKYDEATRLCPTLYDAYYNWAIAISDRAKIRGRTKEAEELWEQAADNYEKAVQLNWNSSQALNNWGLVLQELSQIVPAREKEKVVRTAISKFRAAIRLQFDFHRAIYNLGTVLYGLAEDTLRTGGSGNGKDMPPGELYSQSAIYIAAAHSLKPSYSVYSSALRLVRSMLPLPHLKVGYLTAPPVGNSLAPHSDWKRTEFELNHERLLQVLKPEPREMGRNLSGKAETMSTNVERKTVKVNITEIVSVTPCADLTLPPGAGLCIDTIHGPVFLVADSWESLDGWLDAIRLVYTIYARGKSDVLAGIITG | failed |
| MADVVVGIQWGDEGKGKIVDRIAKDYDFVVRYQGGHNAGHTIVHKGVKHSLHLMPSGVLYPKCKNIISSAVVVSVKDLCEEISAFEDLENRLFVSDRAHVILPYHAKKDAFKEKSQNIGTTKKGIGPCYEDKMARSGIRMGDLLDDKILEEKLNAHFKAIEPFKKAYDLGENYEKDLMGYFKTYAPKICPFIKDTTSMLIEANQKGEKILLEGAQGTLLDIDLGTYPFVTSSNTTSASACVSTGLNPKAINEVIGITKAYSTRVGNGPFPSEDTTPMGDHLRTKGAEFGTTTKRPRRCGWLDLVALKYACALNGCTQLALMKLDVLDGIDAIKVCVAYERKGERLEIFPSDLKDCVPIYQTFKGWEKSVGVRKLDDLEPNVREYIRFIEKEVGVKIRLISTSPEREDTIFL | failed |
